Experimental data reported in patent US11260115B1, “Peptides and combination of peptides for use in immunotherapy against CLL and other cancers” (immatics biotechnologies GmbH, priority 2015, dated 2022).

Target: HLA-A*02:01 (Homo sapiens, UniProt P04439, D140Y/D185E/D98H/E176V/E277Q/G131W/G231S/I119V/I121R/I166T/I218V/L300P/L318F/N151K/N90K/P208A/P217A/Q86G/Q94H/R138H/R169H/T345S)
Experiment: MHC binding assay (UV-ligand exchange, β2m ELISA, peptide exchange yield)
Conditions: binding to HLA-A*02:01
Outline: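 Peptide-HLA-A*02:01 complexes formed by UV-mediated exchange of a photocleavable ligand; exchange yield measured by streptavidin-capture ELISA detecting β2m with HRP anti-β2m, TMB read at 450 nm. Refolded monomer standards 15-500 ng/ml; samples diluted 100-fold.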

Peptide Exchange (MHC class I binding score, peptide exchange yield) | Substance
“+++” (>50 = +++) | 321 (RLLEFELAQL; listed as Homo sapiens) [compound 321]
“+++” (>50 = +++) | 324 (SLYSALQQA; listed as Homo sapiens) [compound 324]
“+++” (>50 = +++) | 325 (TLENGVPCV; listed as Homo sapiens) [compound 325]
“++++” (>75% = ++++) | 326 (VLAFLVHEL; listed as Homo sapiens) [compound 326]
“++++” (>75% = ++++) | 327 (VLIKWFPEV; listed as Homo sapiens) [compound 327]
“++++” (>75% = ++++) | 328 (VLLPQETAEIHL; listed as Homo sapiens) [compound 328]
“++++” (>75% = ++++) | 329 (VLMDGSVKL; listed as Homo sapiens) [compound 329]
“+++” (>50 = +++) | 330 (VLMWEIYSL; listed as Homo sapiens) [compound 330]
“+++” (>50 = +++) | 331 (VLWELAHLPTL; listed as Homo sapiens) [compound 331]
“+++” (>50 = +++) | 333 (VTLEFPQLIRV; listed as Homo sapiens) [compound 333]
“+++” (>50 = +++) | 334 (YLLEEKIASL; listed as Homo sapiens) [compound 334]
“+++” (>50 = +++) | 335 (YLYQEQYFI; listed as Homo sapiens) [compound 335]
“++++” (>75% = ++++) | 336 (YMAVTTQEV; listed as Homo sapiens) [compound 336]
“++” (>20% = ++) | 337 (YMYEKESEL; listed as Homo sapiens) [compound 337]
“++++” (>75% = ++++) | 338 (FLDMTNWNL; listed as Homo sapiens) [compound 338]
“+++” (>50 = +++) | 339 (GLWGTVVNI; listed as Homo sapiens) [compound 339]
“++++” (>75% = ++++) | 340 (KLLEEICNL; listed as Homo sapiens) [compound 340]
“+++” (>50 = +++) | 341 (LLAELPASVHA; listed as Homo sapiens) [compound 341]
“+++” (>50 = +++) | 342 (SLITPLQAV; listed as Homo sapiens) [compound 342]
“+++” (>50 = +++) | 344 (VLAFENPQV; listed as Homo sapiens) [compound 344]

Peptide Exchange (MHC class I binding score, peptide exchange yield) | Substance
“+++” (>50 = +++) | 345 (YLIEPDVELQRI; listed as Homo sapiens) [compound 345]
“+++” (>50 = +++) | 346 (VLVQVSPSL; listed as Homo sapiens) [compound 346]
“+++” (>50 = +++) | 347 (YLGPVSPSL; listed as Homo sapiens) [compound 347]
“+++” (>50 = +++) | 348 (ALAKPPVVSV; listed as Homo sapiens) [compound 348]
“+++” (>50 = +++) | 349 (ALATHILSL; listed as Homo sapiens) [compound 349]
“+++” (>50 = +++) | 350 (ALEDRVWEL; listed as Homo sapiens) [compound 350]
“+++” (>50 = +++) | 351 (ALSEKLARL; listed as Homo sapiens) [compound 351]
“+++” (>50 = +++) | 352 (ALVFELHYV; listed as Homo sapiens) [compound 352]
“++” (>20% = ++) | 353 (ATPMPTPSV; listed as Homo sapiens) [compound 353]
“+++” (>50 = +++) | 354 (FIMDDPAGNSYL; listed as Homo sapiens) [compound 354]
“+++” (>50 = +++) | 355 (FIWPMLIHI; listed as Homo sapiens) [compound 355]
“++” (>20% = ++) | 356 (FLHDHQAEL; listed as Homo sapiens) [compound 356]
“+++” (>50 = +++) | 357 (FLIQEIKTL; listed as Homo sapiens) [compound 357]
“+++” (>50 = +++) | 358 (FLTDYLNDL; listed as Homo sapiens) [compound 358]
“+++” (>50 = +++) | 359 (FMQDPMEVFV; listed as Homo sapiens) [compound 359]
“+++” (>50 = +++) | 360 (HLIDTNKIQL; listed as Homo sapiens) [compound 360]
“+++” (>50 = +++) | 361 (ILQEFESKL; listed as Homo sapiens) [compound 361]
“+++” (>50 = +++) | 362 (ILTELGGFEV; listed as Homo sapiens) [compound 362]
“+++” (>50 = +++) | 363 (ITTEVVNELYV; listed as Homo sapiens) [compound 363]
“+++” (>50 = +++) | 364 (KMDWIFHTI; listed as Homo sapiens) [compound 364]

Peptide Exchange (MHC class I binding score, peptide exchange yield) | Substance
“+++” (>50 = +++) | 365 (LISPLLLPV; listed as Homo sapiens) [compound 365]
“+++” (>50 = +++) | 367 (NLWSLVAKV; listed as Homo sapiens) [compound 367]
“+++” (>50 = +++) | 369 (RLLDLENSLLGL; listed as Homo sapiens) [compound 369]
“+++” (>50 = +++) | 370 (SIFASPESV; listed as Homo sapiens) [compound 370]
“+++” (>50 = +++) | 371 (SLADDSVLERL; listed as Homo sapiens) [compound 371]
“+++” (>50 = +++) | 372 (SLFGPLPGPGPALV; listed as Homo sapiens) [compound 372]
“++” (>20% = ++) | 373 (TLLADQGEIRV; listed as Homo sapiens) [compound 373]
“+++” (>50 = +++) | 374 (VLSVITEEL; listed as Homo sapiens) [compound 374]
“+++” (>50 = +++) | 375 (VLWFKPVEL; listed as Homo sapiens) [compound 375]
“+++” (>50 = +++) | 376 (VLYNQRVEEI; listed as Homo sapiens) [compound 376]
“+++” (>50 = +++) | 377 (VVDGTCVAV; listed as Homo sapiens) [compound 377]
“+++” (>50 = +++) | 378 (YILGKFFAL; listed as Homo sapiens) [compound 378]
“+++” (>50 = +++) | 379 (YLAELVTPIL; listed as Homo sapiens) [compound 379]
“+++” (>50 = +++) | 381 (YLLEENKIKL; listed as Homo sapiens) [compound 381]
“++++” (>75% = ++++) | 382 (YLLPLLQRL; listed as Homo sapiens) [compound 382]
“++++” (>75% = ++++) | 383 (YLLREWVNL; listed as Homo sapiens) [compound 383]
“++++” (>75% = ++++) | 384 (YMIGSEVGNYL; listed as Homo sapiens) [compound 384]
“+++” (>50 = +++) | 385 (YTIPLAIKL; listed as Homo sapiens) [compound 385]
